Data from patent US20160060340A1.

Experiments:
[1] = target: FOLR1-mycHis (human) (UniProt P15328); test: SPR (Biacore T100), antibody captured on CM5 chip, FOLR1-mycHis as analyte, single-cycle kinetics, 1:1 binding model
[2] = target: FOLR1-mycHis (human) (UniProt P15328); test: SPR as in Example 29, antibody captured, FOLR1-mycHis as analyte

Chain of FOLR1-mycHis (human) (P15328 25-233): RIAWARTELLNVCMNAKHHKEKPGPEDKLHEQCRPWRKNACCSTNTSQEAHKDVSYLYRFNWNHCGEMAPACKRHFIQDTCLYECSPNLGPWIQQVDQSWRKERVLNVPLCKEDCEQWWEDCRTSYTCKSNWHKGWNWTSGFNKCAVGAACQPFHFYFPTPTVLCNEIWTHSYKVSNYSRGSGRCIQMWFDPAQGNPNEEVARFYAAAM

Row | Kd [1] | affinity as percent of that of HuRA15-7CTAcc antibody [2] | Substance
1 | 66 nM |  | LK26 antibody (GeneTex)
2 |  | 1.1% | MORAb-003DF antibody
3 | 92 nM |  | MOv18 antibody (ALEXIS BIO…)
